± gives the standard deviation of the averaged measurements.
B1: library; a variant is named by its letters at N, in order (parent)
chain: GCUGUCACCGAGAAACUGUGAAGUAUAUCUUAAACCUGGGCACUUAAAAGAUAUAUGGAGUUAGUAGUGCAACCUGCUCGGUCUGAUGAGUCCNNNNNNGGACGAAACAGC

Columns and labels:
cyclic di-GMP [1] = variants of: B1; assay: FACS-Seq fitted mean relative fluorescence mCherry/BFP without ligand (log10 relative fluorescence); HEK293T; ligand: cyclic di-GMP (c-di-GMP-II aptamer); higher = higher reporter protein expression; conditions: ligand present: no
Procedure, shortened: (§1)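 Enriched HEK293T cells carrying, by lentivirus, an mCherry reporter with the ribozyme switch and an EF1α-BFP marker spent 48 h with or without ligand and were sorted into 6 bins by mCherry/BFP. MiSeq sequencing of PCR-amplified bin genomic DNA gave bin counts. Fluorescence was calculated as the fitted normal mean of those counts. Counts were binned on log10(mCherry/BFP), and means were scaled to five spiked-in control ribozymes.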

cyclic di-GMP [2] = variants of: B1; assay: normalized RNA/DNA level without ligand (relative to sTRSVctl = 100) (log10 (% of sTRSVctl)); HEK293T; ligand: cyclic di-GMP (c-di-GMP-II aptamer); higher = less ribozyme self-cleavage, higher mRNA level; conditions: reporter: mCherry (pCS4076), ligand present: no
Procedure, shortened: (§2)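 HEK293T cells received ligand, where used, 1 h before being transfected with 4 µg per 6-well well of library plasmids encoding reporter-linked ribozyme switches. After 72 h, RNA was extracted with EDTA and sequenced. RNA level was derived from RNA reads per DNA read, normalized to a spiked-in non-cleaving sequence or the top sequences, then scaled and log-transformed. Values were ×100 then log10, the top set was 25 sequences, and the minimum was 100 DNA reads.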

cyclic di-GMP [3] = variants of: B1; assay: FACS-Seq fitted mean relative fluorescence mCherry/BFP with ligand (log10 relative fluorescence); HEK293T; ligand: cyclic di-GMP (c-di-GMP-II aptamer); ligand concentration (+) FACS-Seq: 1 mM; higher = higher reporter protein expression; conditions: ligand present: yes
Procedure, shortened: as §1

cyclic di-GMP [4] = variants of: B1; assay: normalized RNA/DNA level with ligand (relative to sTRSVctl = 100) (log10 (% of sTRSVctl)); HEK293T; ligand: cyclic di-GMP (c-di-GMP-II aptamer); ligand concentration (+) RNA-Seq: 1 mM; higher = less ribozyme self-cleavage, higher mRNA level; conditions: reporter: mCherry (pCS4076), ligand present: yes
Procedure, shortened: as §2

Variant	FACS-Seq fitted mean (log10) (cyclic di-GMP [1])	normalized RNA/DNA level without ligand (log10) (cyclic di-GMP [2])	FACS-Seq fitted mean (log10) (cyclic di-GMP [3])	normalized RNA/DNA level with ligand (log10) (cyclic di-GMP [4])
UGUAGU	0.04 ± 0.16	1.66 ± 0.051	0.343 ± 0.011	1.86 ± 0.12
AGCGUC	-0.71 ± 0.022	1.78 ± 0.028	-0.542 ± 0.044	1.9 ± 0.15
AGCGUG	-0.586 ± 0.017	1.6 ± 0.017	-0.279 ± 0.04	1.78 ± 0.14
CGUUCU	-0.248 ± 0.08	1.51 ± 0.084	0.0758 ± 0.01	1.68 ± 0.068
CGUUCA	-0.111 ± 0.098	1.39 ± 0.12	0.115 ± 0.005	1.59 ± 0.12
CGUUCC	-0.821 ± 0.086	1.735 ± 0.0027	-0.407 ± 0.1	1.87 ± 0.13
AGGACA	-0.264 ± 0.0046	1.48 ± 0.11	-0.014 ± 0.086	1.63 ± 0.12
CGCCAU	-0.339 ± 0.042	1.5 ± 0.12	-0.0661 ± 0.036	1.69 ± 0.078
CGCCAA	-0.26 ± 0.2	1.37 ± 0.045	0.0764 ± 0.12	1.56 ± 0.15
CGCCAC	-0.0985 ± 0.057	1.69 ± 0.027	0.173 ± 0.026	1.84 ± 0.12
CGUCUA	-0.152 ± 0.067	1.26 ± 0.082	0.127 ± 0.011	1.45 ± 0.1
CGUCUU	-0.365 ± 0.028	1.49 ± 0.033	-0.103 ± 0.064	1.66 ± 0.12
CGUCUC	0.2 ± 0.16	1.766 ± 0.015	0.3267 ± 0.0019	1.87 ± 0.11
AGGAUG	-0.151 ± 0.021	1.48 ± 0.054	-0.029 ± 0.059	1.63 ± 0.16
AGGAUC	-0.0729 ± 0.071	1.63 ± 0.023	0.137 ± 0.019	1.78 ± 0.1
AGGAUA	-0.5971 ± 0.0057	1.34 ± 0.12	-0.199 ± 0.011	1.49 ± 0.018
GGCGAG	-0.757 ± 0.036	1.5556 ± 0.00075	-0.498 ± 0.0053	1.68 ± 0.14
CUAAAA	-0.3961 ± 0.0027	1.35 ± 0.057	-0.114 ± 0.1	1.61 ± 0.075

Source: the supplement of paper PMC6757056
